Biological target: SNA I lectin from Sambucus nigra (Sambucus nigra)
Assay: electrochemical impedance spectroscopy

SNA I lectin from Sambucus nigra (Sambucus nigra), sequence (Q41358 29-289 limits assumed, chain 1 of 2): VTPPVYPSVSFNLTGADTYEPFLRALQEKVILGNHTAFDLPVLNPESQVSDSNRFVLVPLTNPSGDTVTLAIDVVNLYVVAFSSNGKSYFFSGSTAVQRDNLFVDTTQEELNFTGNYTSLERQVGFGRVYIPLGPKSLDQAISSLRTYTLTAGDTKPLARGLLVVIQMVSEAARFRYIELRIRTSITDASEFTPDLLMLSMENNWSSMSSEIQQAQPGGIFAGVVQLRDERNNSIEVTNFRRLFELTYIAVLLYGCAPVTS
SNA I lectin from Sambucus nigra (Sambucus nigra), sequence (Q41358 309-570 limits assumed, chain 2 of 2): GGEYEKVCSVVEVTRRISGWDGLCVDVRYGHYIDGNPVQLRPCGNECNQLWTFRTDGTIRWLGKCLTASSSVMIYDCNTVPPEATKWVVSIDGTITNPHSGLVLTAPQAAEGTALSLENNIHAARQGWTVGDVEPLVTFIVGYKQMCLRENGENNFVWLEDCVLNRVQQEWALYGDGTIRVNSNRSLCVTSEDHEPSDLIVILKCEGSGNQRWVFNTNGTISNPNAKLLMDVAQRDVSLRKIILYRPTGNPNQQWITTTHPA

B1: fetuin (natural protein)
chain: IPLDPVAGYKEPACDDPDTEQAALAAVDYINKHLPRGYKHTLNQIDSVKVWPRRPTGEVYDIEIDTLETTCHVLDPTPLANCSVRQQTQHAVEGDCDIHVLKQDGQFSVLFTKCDSSPDSAEDVRKLCPDCPLLAPLNDSRVVHAVEVALATFNAESNGSYLQLVEISRAQFVPLPVSVSVEFAVAATDCIAKEVVDPTKCNLLAEKQYGFCKGSVIQKALGGEDVRVTCTLFQTQPVIPQPQPDGAEAEAPSAVPDAAGPTPSAAGPPVASVVVGPSVVAVPLPLHRAHYDLRHTFSGVASVESSSGEAFHVGKTPIVGQPSIPGGPVRLCPGRIRYFKI
- specific sensitivity (OxASF subtracted): 259 Ω decade^-1

From PMC4881810
